Laboratory results published in patent publication US20110059082A1 (BIOTEST, published 2011).

What follows are binders tested against T1, soluble CD4 (human, UniProt P01730 26-396, limits assumed) (assay: competitive ELISA, inhibition of biotinylated mB-F5 binding to coated soluble CD4, 37 °C 2 hours).
T1 construct: The assay paragraph says only 'soluble CD4'
Description: Culture supernatants of transfectomas producing the four versions of hB-F5 were collected, and concentrated. The different antibodies were purified from culture supernatants by affinity chromatography using protein A Sepharose and assessed for their CD4 binding activity by measuring, by means of competitive ELISA, their inhibitory activities against the binding of biotinylated mB-F5 to soluble CD4 coated on microtiter plates. Incubation, time is 2 hours for 37° C. and overnight for 4° C.

Row | Relative binding activity (% of mB-F5) | Binder
1 | 30 % of mB-F5 | humanized B-F5 H37L/L4L (antibody, V domains shown, expressed in Sp2/0, purified on protein A; also called H37L/L4L IgG1; hB-F5) VH: EEQLVESGGGLVKPGGSLRLSCAASGFSFSDCRMYWLRQAPGKGLEWIGVISVKSENYGANYAESVRGRFTISRDDSKNTVYLQMNSLKTEDTAVYYCSASYYRYDVGAWFAYWGQGTLVTVSS VL: DIVLTQSPDSLAVSLGERATINCRASKSVSTSGYSYIYWYQQKPGQPPKLLIYLASILESGVPDRFSGSGSGTDFTLTISSLQAEDVAVYYCQHSRELPWTFGQGTKVEIK
2 | 30 % of mB-F5 | humanized B-F5 H37L/L4M IgG1 (BT061) (antibody, V domains shown, also called hB-F5; humanised B-F5) VH: EEQLVESGGGLVKPGGSLRLSCAASGFSFSDCRMYWLRQAPGKGLEWIGVISVKSENYGANYAESVRGRFTISRDDSKNTVYLQMNSLKTEDTAVYYCSASYYRYDVGAWFAYWGQGTLVTVSS VL: DIVMTQSPDSLAVSLGERATINCRASKSVSTSGYSYIYWYQQKPGQPPKLLIYLASILESGVPDRFSGSGSGTDFTLTISSLQAEDVAVYYCQHSRELPWTFGQGTKVEIK
3 | 10 % of mB-F5 | humanized B-F5 H37V/L4M (antibody, V domains shown, also called hB-F5) VH: EEQLVESGGGLVKPGGSLRLSCAASGFSFSDCRMYWVRQAPGKGLEWIGVISVKSENYGANYAESVRGRFTISRDDSKNTVYLQMNSLKTEDTAVYYCSASYYRYDVGAWFAYWGQGTLVTVSS VL: DIVMTQSPDSLAVSLGERATINCRASKSVSTSGYSYIYWYQQKPGQPPKLLIYLASILESGVPDRFSGSGSGTDFTLTISSLQAEDVAVYYCQHSRELPWTFGQGTKVEIK
4 | 10 % of mB-F5 | humanized B-F5 H37V/L4L (antibody, V domains shown, also called hB-F5) VH: EEQLVESGGGLVKPGGSLRLSCAASGFSFSDCRMYWVRQAPGKGLEWIGVISVKSENYGANYAESVRGRFTISRDDSKNTVYLQMNSLKTEDTAVYYCSASYYRYDVGAWFAYWGQGTLVTVSS VL: DIVLTQSPDSLAVSLGERATINCRASKSVSTSGYSYIYWYQQKPGQPPKLLIYLASILESGVPDRFSGSGSGTDFTLTISSLQAEDVAVYYCQHSRELPWTFGQGTKVEIK
